“And” between values parts separate entries of the source, which are not always exact repeats. Identical values can stand only once.
Target: T1, apoptosis-associated speck-like protein containing a CARD (mouse (endogenous in primary cortical astrocytes)), Q9EPB4
T1 chain: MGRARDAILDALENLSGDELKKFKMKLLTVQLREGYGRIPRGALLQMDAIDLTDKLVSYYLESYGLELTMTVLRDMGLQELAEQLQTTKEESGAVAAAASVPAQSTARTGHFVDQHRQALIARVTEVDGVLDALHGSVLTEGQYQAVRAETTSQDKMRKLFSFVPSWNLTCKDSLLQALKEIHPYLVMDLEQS
Assay: cross-linking; astrocytes treated with ATP, LPS or ethanol, lysed in PBS/Triton 0.5%; 8000 x g pellets cross-linked with 2 mM DSS for 30 min at room temperature; 12% SDS-PAGE, blot with anti-mouse ASC
Settings: remark: other sources report otherwise

- stoichiometry N: 2 and 3
B1: apoptosis-associated speck-like protein containing a CARD, Q9EPB4 1-193 (natural protein)
chain: T1 chain

— article PMC4118026
